This note sets out measurements from patent publication US20110306550A1.

In the assay the target is cellular receptor for the apoE peptide (not named), on cells. Description: competition binding on cells (250,000 cells per well, 4 C); competitor/tracer biotinylated apoE 133-149, detected with 125I-streptavidin.

What is called IC50 is the midpoint of a concentration-inhibition curve. A lower IC50 goes with greater potency in that assay.

LRVRLASHLRKLRKRLL [COG133 (apoE 133-149 peptide), unlabeled]: the IC50 amounted to 4 µM.
